Molecular target: 55S mitochondrial ribosome from pig liver mitochondria (pig (endogenous in pig liver mitochondria))
Assay: Western blotting of purified ribosomes against a protein standard; amount of integrated ICT1 on purified pig 55S ribosomes estimated with purified ICT1 as a standard

**Q.** For “55S-integrated ICT1 of the pig mitoribosome (mitochondrial ribosomal protein L58) (natural protein)”, which stoichiometry N (ICT1 per 55S ribosome) is on record?
**A.** 1
